From article PMC9319256, “Human Enzyme PADI4 Binds to the Nuclear Carrier Importin α3” (Cells, 2022)

Assays:
[1] = biological target: human importin α3 (Impα3), intact (human); experiment: other fluorescence titration; peptide 0-20 µM added to 3 µM Impα3 or ΔImpα3; 20 mM Tris pH 7.5, 5 mM TCEP, 150 mM NaCl, 5% glycerol; 25 °C; fluorescence at 330 nm
[2] = biological target: ΔImpα3, truncated importin α3 lacking the importin β-binding (IBB) domain (human); experiment: as above
[3] = biological target: human importin α3 (Impα3), intact (human); experiment: ITC; PADI4 or peptide (100 µM) in the syringe titrated into importin (10 µM) in the cell; 20 mM Tris pH 7.5, 5 mM TCEP, 150 mM NaCl, 5% glycerol; 25 °C; single-site model
[4] = biological target: ΔImpα3, truncated importin α3 lacking the importin β-binding (IBB) domain (human); experiment: as above
[5] = biological target: human importin α3 (Impα3), intact (human); experiment: BLI; BLItz; His-tagged Impα3 or ΔImpα3 immobilised on His-tag biosensors at 0.3 µM; peptides 1-7 µM; manufacturer's buffer; 25 °C; pseudo-first-order plots; apparent
[6] = biological target: ΔImpα3, truncated importin α3 lacking the importin β-binding (IBB) domain (human); experiment: as above

human importin α3 (Impα3), intact (human), sequence (O00629 whole entry, the tested form may be a part): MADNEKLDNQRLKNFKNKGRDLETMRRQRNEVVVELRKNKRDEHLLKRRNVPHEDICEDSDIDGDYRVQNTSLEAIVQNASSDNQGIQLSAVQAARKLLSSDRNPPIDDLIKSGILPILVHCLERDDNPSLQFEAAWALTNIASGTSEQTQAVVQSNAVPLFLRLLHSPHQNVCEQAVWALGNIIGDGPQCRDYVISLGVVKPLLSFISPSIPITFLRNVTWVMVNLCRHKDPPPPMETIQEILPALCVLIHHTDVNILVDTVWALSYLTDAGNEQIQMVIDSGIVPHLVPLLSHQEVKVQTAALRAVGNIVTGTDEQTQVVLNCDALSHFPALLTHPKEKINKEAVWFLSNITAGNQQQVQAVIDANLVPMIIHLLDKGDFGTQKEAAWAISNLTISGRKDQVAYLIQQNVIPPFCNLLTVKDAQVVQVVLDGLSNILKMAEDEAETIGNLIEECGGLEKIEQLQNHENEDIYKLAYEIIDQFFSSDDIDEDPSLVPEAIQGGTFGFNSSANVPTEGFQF

Kd [1]: 4 µM
Kd [2]: 4 µM
Ka [3]: 43000 M⁻¹
Kd [3]: 23 µM
dH [3]: -35.7 kcal/mol
stoichiometry N [3]: 1.08
Ka [4]: 230000 M⁻¹
Kd [4]: 4.3 µM
dH [4]: -11.2 kcal/mol
stoichiometry N [4]: 1.1
Kd [5]: 99 µM
koff [5]: 0.32 s⁻¹
kon [5]: 3000 M⁻¹ s⁻¹
Kd [6]: 12 µM
koff [6]: 0.23 s⁻¹
kon [6]: 20000 M⁻¹ s⁻¹
B1: NLS2-PADI4 peptide (peptide)
peptide: Ac-YKLFQEQQNEGHGEALLFEGIKKKKQQKI-NH2
